“And” between values parts separate entries of the source, which are not always exact repeats. Identical values can stand only once.

Results on twelve variants are retold here after FireProtDB (doi:10.1110/ps.051838206).

B1: Azurin, P00282 (parent)
chain: MLRKLAAVSLLSLLSAPLLAAECSVDIQGNDQMQFNTNAITVDKSCKQFTVNLSHPGNLPKNVMGHNWVLSTAADMQGVVTDGMASGLDKDYLKPDDSRVIAHTKLIGSGEKDSVTFDVSKLKEGEQYMFFCTFPGHSALMKGTLTLK

The variants in this data set derive from B1. Particulars: Pseudomonas aeruginosa (strain ATCC 15692 / DSM 22644 / CIP 104116 / JCM 14847 / LMG 12228 / 1C / PRS 101 / PAO1), pH 7, 25 °C, GdnHCl, Tris-HCl 100 mM, reversible: Yes, structure 5AZU, whole UniProt chain shown.

As for MLRKLAAVSLLSLLSAPLLAAECSVDIQGNDQMQFNTNAATVDKSCKQFTVNLSHPGNLPKNVMGHNWVLSTAADMQGVVTDGMASGLDKDYLKPDDSRVIAHTKLIGSGEKDSVTFDVSKLKEGEQYMFFCTFPGHSALMKGTLTLK [I40A], where the note is “Fluorescence”, the “ddG of mutation (higher = less stable)” value came to 1.55 kcal/mol and the unfolding free energy was found to be 4.42 kcal/mol.
Consider MLRKLAAVSLLSLLSAPLLAAECSVDIQGNDQMQFNTNAVTVDKSCKQFTVNLSHPGNLPKNVMGHNWVLSTAADMQGVVTDGMASGLDKDYLKPDDSRVIAHTKLIGSGEKDSVTFDVSKLKEGEQYMFFCTFPGHSALMKGTLTLK [I40V], for which the unfolding free energy runs as follows: (CD) 5.59 kcal/mol and 12.9 kcal/mol; (Fluorescence) 5.59 kcal/mol and 12.9 kcal/mol.
With MLRKLAAVSLLSLLSAPLLAAECSVDIQGNDQMQFNTNATTVDKSCKQFTVNLSHPGNLPKNVMGHNWVLSTAADMQGVVTDGMASGLDKDYLKPDDSRVIAHTKLIGSGEKDSVTFDVSKLKEGEQYMFFCTFPGHSALMKGTLTLK [I40T], the “ddG of mutation (higher = less stable)” value was 2.39 kcal/mol and 1.91 kcal/mol (CD); 2.39 kcal/mol and 1.91 kcal/mol (Fluorescence).
For the variant MLRKLAAVSLLSLLSAPLLAAECSVDIQGNDQMQFNTNAITVDKSCKQFTVNLSHPGNLPKNVMGHNWVVSTAADMQGVVTDGMASGLDKDYLKPDDSRVIAHTKLIGSGEKDSVTFDVSKLKEGEQYMFFCTFPGHSALMKGTLTLK [L70V], the “ddG of mutation (higher = less stable)” value runs as follows: (CD) 0.36 kcal/mol and 0.24 kcal/mol; (Fluorescence) 0.36 kcal/mol and 0.24 kcal/mol. Further, the unfolding free energy (CD) was 5.62 kcal/mol and 12.7 kcal/mol; the unfolding free energy (Fluorescence) was 5.62 kcal/mol and 12.7 kcal/mol.
MLRKLAAVSLLSLLSAPLLAAECSVDIQGNDQMQFNTNAITVDKSCKQFTVNLSHPGNLPKNVMGHNWVTSTAADMQGVVTDGMASGLDKDYLKPDDSRVIAHTKLIGSGEKDSVTFDVSKLKEGEQYMFFCTFPGHSALMKGTLTLK [L70T]: where the note is “CD”, the “ddG of mutation (higher = less stable)” value was 2.34 kcal/mol and 2.15 kcal/mol; the unfolding free energy is 3.63 kcal/mol and 10.8 kcal/mol. Besides, for the setting “Fluorescence”, the “ddG of mutation (higher = less stable)” value came to 2.15 kcal/mol and the unfolding free energy was found to be 10.8 kcal/mol.
As for MLRKLAAVSLLSLLSAPLLAAECSVDIQGNDQMQFNTNAITVDKSCKQFTVNLSHPGNLPKNVMGHNWVLSTAADMQGVVTDGMASGLDKDYLKPDDSRVIAHTKLIGSGEKDSTTFDVSKLKEGEQYMFFCTFPGHSALMKGTLTLK [V115T], the unfolding free energy is 6.93 kcal/mol and 12.8 kcal/mol (CD); 6.93 kcal/mol and 12.8 kcal/mol (Fluorescence).
As to MLRKLAAVSLLSLLSAPLLAAECSVDIQGNDQMQFNTNAITADKSCKQFTVNLSHPGNLPKNVMGHNWVLSTAADMQGVVTDGMASGLDKDYLKPDDSRVIAHTKLIGSGEKDSVTFDVSKLKEGEQYMFFCTFPGHSALMKGTLTLK [V42A], under “CD”, the “ddG of mutation (higher = less stable)” value was found to be 1.43 kcal/mol and the unfolding free energy worked out at 4.54 kcal/mol.
Regarding MLRKLAAVSLLSLLSAPLLAAECSVDIQGNDQMQFNTNAITTDKSCKQFTVNLSHPGNLPKNVMGHNWVLSTAADMQGVVTDGMASGLDKDYLKPDDSRVIAHTKLIGSGEKDSVTFDVSKLKEGEQYMFFCTFPGHSALMKGTLTLK [V42T], the unfolding free energy (CD) was 5.02 kcal/mol and 8.6 kcal/mol; the unfolding free energy (Fluorescence) was 5.02 kcal/mol and 8.6 kcal/mol.
As for MLRKLAAVSLLSLLSAPLLAAECSVDIQGNDQMQFNTNAITVDKSCKQFTVNLSHPGNLPKNVMGHNWVLSTAADMQGVVTDGMASGLDKDYLKPDDSRVVAHTKLIGSGEKDSVTFDVSKLKEGEQYMFFCTFPGHSALMKGTLTLK [I101V], the unfolding free energy was 5.9 kcal/mol and 12.7 kcal/mol (CD); 5.9 kcal/mol and 12.7 kcal/mol (Fluorescence).
Turning to MLRKLAAVSLLSLLSAPLLAAECSVDIQGNDQMQFNTNAITVDKSCKQFTVNLSHPGNLPKNVMGHNWVLSTAADMQGVVTDGMASGLDKDYLKPDDSRVAAHTKLIGSGEKDSVTFDVSKLKEGEQYMFFCTFPGHSALMKGTLTLK [I101A], the “ddG of mutation (higher = less stable)” value runs as follows: (CD) 2.39 kcal/mol; (Fluorescence) 2.39 kcal/mol. Further, the unfolding free energy is 3.59 kcal/mol (CD) and 3.59 kcal/mol (Fluorescence).
For MLRKLAAVSLLSLLSAPLLAAECSVDIQGNDQMQFNTNAITVDKSCKQFTVNLSHPGNLPKNVMGHNWVLSTAADMQGVVTDGMASGLDKDYLKPDDSRVTAHTKLIGSGEKDSVTFDVSKLKEGEQYMFFCTFPGHSALMKGTLTLK [I101T], under “CD”, the “ddG of mutation (higher = less stable)” value was 2.51 kcal/mol and 3.35 kcal/mol; the unfolding free energy is 3.47 kcal/mol and 9.56 kcal/mol. Moreover, for the setting “Fluorescence”, the “ddG of mutation (higher = less stable)” value is 2.51 kcal/mol and 3.35 kcal/mol; the unfolding free energy was 3.47 kcal/mol and 9.56 kcal/mol.
Take MLRKLAAVSLLSLLSAPLLAAECSVDIQGNDQMQFNTNAITVDKSCKQFTTNLSHPGNLPKNVMGHNWVLSTAADMQGVVTDGMASGLDKDYLKPDDSRVIAHTKLIGSGEKDSVTFDVSKLKEGEQYMFFCTFPGHSALMKGTLTLK [V51T]: the unfolding free energy was 4.9 kcal/mol and 8.84 kcal/mol (CD); 4.9 kcal/mol and 8.84 kcal/mol (Fluorescence).
